Assay results from the Human Domainome abundance scans (Beltran et al. 2025).
± gives the uncertainty stated by the source.

B1: CD2-associated protein, residues 109 to 169; numbered along this chain, Q9Y5K6 (parent)
chain: KKRQCKVLFEYIPQNEDELELKVGDIIDINEEVEEGWWSGTLNNKLGLFPSNFVKELEVTD

Variants of: B1
Assay: abundance fitness (aPCA) (normalised: wild type 0, dead -1); higher = more abundant; growth selection in yeast, the domain comes from the species named
Details: Homo sapiens

Variant	abundance fitness
KKRQCKVLFEYIPQNEDELELKVGDIIDINEEVEEGWWSGTLNNKLGLFPSNFVKHLEVTD	-0.666 ± 0.23
KKRQCKVLFEYIPQNEDELELKVGDIIDINEEVEEGWWSGTLNNKLGLFPSNFVKPLEVTD	-0.224 ± 0.1
KKRQCKVLFEYIPQNEDELELKVGDIIDINEEVEEGWWSGTLNNKLGLFPSNFVKVLEVTD	-0.105 ± 0.08
KKRQCKVLFEYIPQNEDELELKVGDIIDINEEVEEGWWSGTLNNKLGLFPSNFVKLLEVTD	-0.058 ± 0.068
KKRQCKVLFEYIPQNEDELELKVGDIIDINEEVEEGWWSGTLNNKLGNFPSNFVKELEVTD	-0.187 ± 0.14
KKRQCKVLFEYIPQNEDELELKVGDIIDINEEVEEGWWSGTLNNKLGYFPSNFVKELEVTD	-0.033 ± 0.082
KKRQCKVLFEYIPQNEDELELKVGDIIDINEEVEEGWWSGTLNNKLGSFPSNFVKELEVTD	-0.438 ± 0.091
KKRQCKVLFEYIPQNEDELELKVGDIIDINEEVEEGWWSGTLNNKLGLFPSNFVKELQVTD	0.202 ± 0.19
KKRQCKVLFEYIPQNEDELELKVGDIIDINEEVEEGWWSGTLNNKLGLFPSNFVKELNVTD	-0.057 ± 0.12
KKRQCKVLFEYIPQNEDELELKVGDIIDINEEVEEHWWSGTLNNKLGLFPSNFVKELEVTD	-0.375 ± 0.09
KKRQCKVLFEYIPQNEDELELKVGDIIDINEEVEECWWSGTLNNKLGLFPSNFVKELEVTD	-0.467 ± 0.089
KKRQRKVLFEYIPQNEDELELKVGDIIDINEEVEEGWWSGTLNNKLGLFPSNFVKELEVTD	-0.547 ± 0.11
KKRQAKVLFEYIPQNEDELELKVGDIIDINEEVEEGWWSGTLNNKLGLFPSNFVKELEVTD	0.335 ± 0.062
KKRQCKVLFEYIPQNEDELELKVGDIIDINEEVEEGWWSGTLNNKLGLFPSNFVKELEVMD	-0.257 ± 0.18
KKRQCKGLFEYIPQNEDELELKVGDIIDINEEVEEGWWSGTLNNKLGLFPSNFVKELEVTD	-1.24 ± 0.32
KKRQCKELFEYIPQNEDELELKVGDIIDINEEVEEGWWSGTLNNKLGLFPSNFVKELEVTD	-0.999 ± 0.37
KKRQCKVLFEYIPQNEDELELKVGDPIDINEEVEEGWWSGTLNNKLGLFPSNFVKELEVTD	-0.818 ± 0.46
KKRQCKVLFEYIPQNEDELELKVGDRIDINEEVEEGWWSGTLNNKLGLFPSNFVKELEVTD	-0.813 ± 0.14
KKRQCKVLFEYIPQNEDELELKVGDKIDINEEVEEGWWSGTLNNKLGLFPSNFVKELEVTD	-0.624 ± 0.17
KKRQCKVLFEYIPQNEDELELKVGDHIDINEEVEEGWWSGTLNNKLGLFPSNFVKELEVTD	-0.391 ± 0.44
KKRQCKVLFEYIPQNEDELELKVGDIIDINEEVEEGWWSGTLLNKLGLFPSNFVKELEVTD	-0.489 ± 0.1
KKRQCKVLFEYIPQNEDELELKVGDIIDICEEVEEGWWSGTLNNKLGLFPSNFVKELEVTD	-0.256 ± 0.42

Variant	abundance fitness
KKRQCKVLFEYIPQNEDELELKVGDIIDINEEVEEGWWSWTLNNKLGLFPSNFVKELEVTD	-0.668 ± 0.16
KSRQCKVLFEYIPQNEDELELKVGDIIDINEEVEEGWWSGTLNNKLGLFPSNFVKELEVTD	-0.754 ± 0.3
KKRQCKVLFEYIPQNEDELEGKVGDIIDINEEVEEGWWSGTLNNKLGLFPSNFVKELEVTD	-0.348 ± 0.16
KKRQCKVLFEYIPQNEDELELKVGDIIDINEEVEEGWWSGTLNNKLGLFPINFVKELEVTD	-0.178 ± 0.27
KKRQCKVLFEYIPQNEDELELKVGDIIDINEEVEEGWWSGTLNNKLGLFPPNFVKELEVTD	-0.429 ± 0.12
KKRQCKVLFEYIPQNEDELELKVGDIIDINEEVEEGWWSGTLNNKLGLFPTNFVKELEVTD	-0.047 ± 0.11
KKRQCKVLFEYIPQNEDELELKVGDIHDINEEVEEGWWSGTLNNKLGLFPSNFVKELEVTD	-0.614 ± 0.42
KKRQCKVLFEYIPQNEDELELKVGDIQDINEEVEEGWWSGTLNNKLGLFPSNFVKELEVTD	-0.541 ± 0.19
KKRQCKVLFEYIPTNEDELELKVGDIIDINEEVEEGWWSGTLNNKLGLFPSNFVKELEVTD	0.079 ± 0.16
KKRQCKVLFEYIPCNEDELELKVGDIIDINEEVEEGWWSGTLNNKLGLFPSNFVKELEVTD	-0.304 ± 0.24
KKRQCKVLFEYIPANEDELELKVGDIIDINEEVEEGWWSGTLNNKLGLFPSNFVKELEVTD	-0.203 ± 0.39
KKRQCKVLHEYIPQNEDELELKVGDIIDINEEVEEGWWSGTLNNKLGLFPSNFVKELEVTD	0.145 ± 0.35
KKRQCKVLSEYIPQNEDELELKVGDIIDINEEVEEGWWSGTLNNKLGLFPSNFVKELEVTD	0.004 ± 0.087
KKRQCKVLFEYIPQNEDELELKVGDIIDINEEVEEGWWSGTLNNKLGLFPSNNVKELEVTD	-0.109 ± 0.12
KKRQCKVLFEYIPQNEDELELKVGDIIDINEEVEEGWWSGTLNNKLGLFPSNRVKELEVTD	0.007 ± 0.079
CKRQCKVLFEYIPQNEDELELKVGDIIDINEEVEEGWWSGTLNNKLGLFPSNFVKELEVTD	-0.232 ± 0.26
SKRQCKVLFEYIPQNEDELELKVGDIIDINEEVEEGWWSGTLNNKLGLFPSNFVKELEVTD	-0.249 ± 0.13
YKRQCKVLFEYIPQNEDELELKVGDIIDINEEVEEGWWSGTLNNKLGLFPSNFVKELEVTD	-0.172 ± 0.28
KKRQCKVLFEYIPQNEDELELKVGDIIDINEEVEEGWWSGTLNNKLGLFGSNFVKELEVTD	-0.697 ± 0.17
KKRQCKVLFEYIPQNEDELELKVGDIIDINEEVEEGWWSGTLNNKLGLFWSNFVKELEVTD	-0.764 ± 0.14
KKRQCKVLFEYIPQNEDELELKVGDIIDINEEVEEGWWSGTLNNKLGLFRSNFVKELEVTD	-0.064 ± 0.075
KKRQCKVLFEYIPQNEDELELKVGDIIDINEEVEEGWWSGTLNMKLGLFPSNFVKELEVTD	-0.318 ± 0.16
